Columns and labels:
HLA-A*01:01 [1] = experiment: IEDB peptide-MHC binding, purified MHC/direct/fluorescence; filed as Kd, often an IC50 or EC50 that approximates it; ≥ and ≤ were set here for values at or beyond the usual limits of such assays
HLA-A*26:01 [2] = experiment: IEDB peptide-MHC binding, purified MHC/competitive/radioactivity; filed as Kd, often an IC50 or EC50 that approximates it; ≥ and ≤ were set here for values at or beyond the usual limits of such assays
HLA-A*26:01 [3] = experiment: IEDB peptide-MHC binding, purified MHC/direct/fluorescence; filed as Kd, often an IC50 or EC50 that approximates it; ≥ and ≤ were set here for values at or beyond the usual limits of such assays
HLA-A*02:01 [4] = experiment: IEDB peptide-MHC binding, purified MHC/competitive/fluorescence; ≥ and ≤ were set here for values at or beyond the usual limits of such assays
HLA-A*30:02 = experiment: IEDB peptide-MHC binding, purified MHC/competitive/radioactivity; filed as Kd, often an IC50 or EC50 that approximates it; ≥ and ≤ were set here for values at or beyond the usual limits of such assays
HLA-A*02:01 [5] = experiment: IEDB peptide-MHC binding, purified MHC/competitive/fluorescence; filed as Kd, often an IC50 or EC50 that approximates it; ≥ and ≤ were set here for values at or beyond the usual limits of such assays
HLA-A*24:02 = experiment: IEDB peptide-MHC binding, purified MHC/competitive/radioactivity; filed as Kd, often an IC50 or EC50 that approximates it; ≥ and ≤ were set here for values at or beyond the usual limits of such assays
HLA-B*40:01 = experiment: IEDB peptide-MHC binding, purified MHC/direct/fluorescence; filed as Kd, often an IC50 or EC50 that approximates it; ≥ and ≤ were set here for values at or beyond the usual limits of such assays
HLA-A*01:01 [6] = experiment: IEDB peptide-MHC binding, purified MHC/competitive/radioactivity; filed as Kd, often an IC50 or EC50 that approximates it; ≥ and ≤ were set here for values at or beyond the usual limits of such assays
HLA-A*69:01 = experiment: IEDB peptide-MHC binding, purified MHC/direct/fluorescence; filed as Kd, often an IC50 or EC50 that approximates it; ≥ and ≤ were set here for values at or beyond the usual limits of such assays
HLA-A*02:01 [7] = experiment: as above; conditions: source organism: Burkholderia mallei
HLA-B*58:01 = experiment: as above
HLA-B*07:02 = experiment: as above; conditions: source organism: Mycobacterium tuberculosis
HLA-A*23:01 = experiment: IEDB peptide-MHC binding, purified MHC/competitive/radioactivity; filed as Kd, often an IC50 or EC50 that approximates it; ≥ and ≤ were set here for values at or beyond the usual limits of such assays; conditions: source organism: Dengue virus 4 Philippines/H241/1956
HLA-A*11:01 = experiment: IEDB peptide-MHC binding, purified MHC/direct/fluorescence; filed as Kd, often an IC50 or EC50 that approximates it; ≥ and ≤ were set here for values at or beyond the usual limits of such assays; conditions: source organism: Homo sapiens
HLA-A*03:01 = experiment: as above; conditions: source organism: Homo sapiens
HLA-B*15:01 = experiment: as above; conditions: source organism: Homo sapiens
[8] = source organism: Dengue virus 1 Brazil/97-11/1997
[9] = source organism: Dengue virus 4 Philippines/H241/1956
[10] = source organism: Dengue virus 2 Jamaica/1409/1983
[11] = source organism: Zaire ebolavirus
[12] = source organism: Dengue virus 3 Singapore/8120/1995
[13] = source organism: Mycobacterium tuberculosis

In the case of MTRGILGSY, the Kd (HLA-A*01:01 [1]; source organism: West Nile virus) is reported as 7 µM.

EVTAKWLWGF gave a Kd (HLA-A*26:01 [2]; [8]) of 0.0807 µM.

Work on LIPLWMAGL yielded a Kd (HLA-A*26:01 [3]; source organism: Vibrio vulnificus CMCP6) of 8.98 µM.

RLGADLDAV gave an IC50 (HLA-A*02:01 [4]; source organism: Vaccinia virus WR) of 7.72 µM.

With TANIFRGSY the Kd (HLA-A*30:02; [9]) was 0.00679 µM.

RGDLPVWLAY was tested, and the Kd (HLA-A*30:02; [10]) was 0.00685 µM.

For ITNTIAGVA, the IC50 (HLA-A*02:01 [4]; [11]) was 19.9 µM.

EPILEYVVY was tested, and the Kd (HLA-A*26:01 [3]; source organism: Francisella tularensis subsp. tularensis FSC033) was 0.827 µM.

Sequence DLKPQNILL has a Kd (HLA-A*02:01 [5]; source organism: Homo sapiens) of 2 µM.

DDQEKKILM gave an IC50 (HLA-A*02:01 [4]; [11]) of at least 1720 µM.

With DVDKLVCRD the IC50 (HLA-A*02:01 [4]; [11]) was 51.9 µM.

Sequence IWGRKSWPL has a Kd (HLA-A*24:02; [8]) of 0.0933 µM.

LLPFGQLSI gave a Kd (HLA-A*02:01 [5]; source organism: Escherichia coli O139:H28 str. E24377A) of 0.147 µM.

TPRKKNYHF showed a Kd (HLA-A*02:01 [5]; source organism: Vibrio parahaemolyticus K5030) of at least 20 µM.

For DVFCDSKLM, the Kd (HLA-A*26:01 [2]; [10]) was 1.88 µM.

With YLVVVGAVGV the Kd (HLA-A*02:01 [5]; source organism: unidentified) was 0.01 µM.

With VQHPELTGL the Kd (HLA-B*40:01; source organism: Influenza A virus) was 0.137 µM.

Work on VVQHENLKY yielded a Kd (HLA-A*01:01 [6]; [12]) of 2.4 µM and a Kd (HLA-A*30:02; [12]) of 0.266 µM.

Work on VLRGRHDAA yielded a Kd (HLA-A*69:01; source organism: Burkholderia mallei) of at least 20 µM and a Kd (HLA-A*02:01 [7]) of 9.25 µM.

AEDMGNGCF was tested, and the Kd (HLA-B*40:01; source organism: Influenza A virus (A/Moscow/343/2003(H3N2))) was 0.166 µM.

IFISANNQW showed a Kd (HLA-B*58:01; source organism: Vibrio vulnificus) of 0.0228 µM.

Work on LLHDIGKPV yielded a Kd (HLA-A*69:01; [13]) of at least 20 µM and a Kd (HLA-B*07:02) of 11.5 µM.

With NSTSTWVTY the Kd (HLA-A*01:01 [6]; [10]) was 7.23 µM and the Kd (HLA-A*30:02; [10]) was 1.73 µM.

With RMIGGIGRFYI the Kd (HLA-A*02:01 [5]; source organism: Influenza A virus (A/swine/Italy/2/1979(H1N1))) was 0.0003 µM.

HWVEITALI was tested, and the Kd (HLA-A*23:01) was 0.1 µM and the Kd (HLA-A*24:02; [9]) was 0.317 µM.

ALFGIKLPAL was tested, and the Kd (HLA-A*02:01 [5]; source organism: Vaccinia virus Copenhagen) was 0.0003 µM.

With VKRLEELLP the IC50 (HLA-A*02:01 [4]; [11]) was at least 375 µM.

Sequence LLLGGTSEI has a Kd (HLA-A*69:01; [13]) of 0.846 µM.

With SSEQTFMYY the Kd (HLA-A*11:01) was 0.263 µM, the Kd (HLA-A*03:01) was 10.2 µM and the Kd (HLA-A*01:01 [1]; source organism: Homo sapiens) was 0.0421 µM. For the same sequence, the Kd (HLA-A*69:01; source organism: Homo sapiens) was 8.34 µM, the Kd (HLA-B*15:01) was 1.42 µM and the Kd (HLA-B*58:01; source organism: Homo sapiens) was 2.48 µM.

From the Immune Epitope Database (IEDB)
